Results on one molecule are retold here after patent publication US20240279288A1, “APPLICATION OF PLANT JAZ PROTEINS AND DERIVED POLYPEPTIDES IN PREVENTION AND TREATMENT OF HUMAN AND ANIMAL TUMORS” (ANYANG INSTITUTE OF SINO-COTTON INDUSTRY INNOVATION, priority 2021, published 2024).

This test has as its target T1, NMYC (Homo sapiens, UniProt P04198).
T1 construct: with the full length of c-Myc and NMYC, respectively; expressed in transfected cells; host or cells: yeast Y2HGold
T1 sequence (P04198 1-464): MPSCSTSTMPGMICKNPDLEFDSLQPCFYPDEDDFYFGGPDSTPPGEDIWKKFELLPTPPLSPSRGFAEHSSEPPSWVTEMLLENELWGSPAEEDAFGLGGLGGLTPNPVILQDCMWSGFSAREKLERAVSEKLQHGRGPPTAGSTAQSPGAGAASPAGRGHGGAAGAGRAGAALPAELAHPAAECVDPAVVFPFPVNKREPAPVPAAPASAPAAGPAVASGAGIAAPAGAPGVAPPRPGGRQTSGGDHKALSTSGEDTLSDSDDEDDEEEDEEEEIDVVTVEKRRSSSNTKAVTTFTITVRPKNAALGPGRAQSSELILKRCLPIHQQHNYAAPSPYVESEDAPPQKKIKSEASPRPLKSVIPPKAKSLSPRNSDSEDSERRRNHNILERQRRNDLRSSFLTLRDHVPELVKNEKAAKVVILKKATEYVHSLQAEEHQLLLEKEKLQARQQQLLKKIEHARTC
Put plainly: Yeast two hybrid with NMYC. It is filed as binding.
Excerpt: […]

B1: GhJAZ1: cotton JAZ1 protein, gene number Gh_A05G0260, sequence SEQ ID No. 4; prokaryotically expressed with His tag, about 30 KD (protein)
chain: MSSCSESTAMKPARSPEKPSFAQTCNLLSQYLKEKGSFGDLSLGMTCNVEANGTPVVPPPTMNLFPLNDKSDDVCGRNGGNPKNLTSMDLFPQQAGLASKDDSPNKLEPQTAPMTIFYGGQVIVFNDFPANKAKEIMLLASNSSSQSNNSFNPIPFTSSIARSPIESSIGVPPTSKPVHPAQRAVPGDLPIARRASLHRFLEKRKDRITAKAPYQINNSAAAPSLSGDNKSWLGLAAQSP
modifications: His tag
notes: prokaryotically expressed with His tag, about 30 KD
As for B1, the “interaction with NMYC” value is reported as “interacted”.
